The text below walks through data of US20170368132A1 (published 2017).

The labels stand for the following.
T1: Rad51, fluorescently labelled (microscale thermophoresis) (UniProt Q06609 1-339, limits assumed, fluorescently labelled according to the manufacturer's protocol (site not stated))
T1 construct: Purified labelled protein at about 500 nM; The buffer contained 0.5 mM ATP and 2.5 uM ssDNA
T1 sequence (looked up): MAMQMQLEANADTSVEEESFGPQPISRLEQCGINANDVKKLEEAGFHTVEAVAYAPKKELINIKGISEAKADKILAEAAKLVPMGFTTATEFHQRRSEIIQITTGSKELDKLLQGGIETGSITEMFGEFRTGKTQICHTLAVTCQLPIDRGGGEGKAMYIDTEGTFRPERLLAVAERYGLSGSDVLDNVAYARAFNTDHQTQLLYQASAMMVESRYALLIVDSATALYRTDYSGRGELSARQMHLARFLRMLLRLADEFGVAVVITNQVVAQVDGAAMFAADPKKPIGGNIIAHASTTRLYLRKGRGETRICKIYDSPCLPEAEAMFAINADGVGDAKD

T2: H. sapiens Rad51 (H. sapiens, UniProt Q06609 1-339)
T2 construct: Expressed in yeast as a two-hybrid fusion; also called human RAD51
T2 sequence: T1 sequence (looked up)

B1: Rad51 (S208E; A209D) (enzyme)
chain: T1 sequence (looked up) with S208E, A209D
notes: Human RAD51 mutant tested by Y2H; also called human RAD51 S208E A209D
B2: Rad51 (F86E; A89E) (enzyme)
chain: T1 sequence (looked up) with F86E, A89E
notes: Human RAD51 mutant tested by Y2H; also called human RAD51 F86E A89E
B3: Rad51 (S208L; A209E; M210A) (enzyme)
chain: T1 sequence (looked up) with S208L, A209E, M210A
notes: Human RAD51 mutant tested by Y2H; also called human RAD51 S208L A209E M210A
B4: Rad51 (Q202R, Y205D, Q206A) (enzyme)
chain: T1 sequence (looked up) with Q202R, Y205D, Q206A
notes: Human RAD51 mutant tested by Y2H; also called human RAD51 Q202R Y205D Q206A
B5: Rad51 (A190L; A192L) (enzyme)
chain: T1 sequence (looked up) with A190L, A192L
notes: Human RAD51 mutant tested by Y2H; also called human RAD51 A190L A192L

Residue numbers refer to the chain shown, from its start. Names may count otherwise. Non-standard residues stand in square brackets, D forms with d. Groups on a side chain read outwards from the residue. *: point of attachment. 5FAM = O=C1OC2(c3ccc(O)cc3Oc3cc(O)ccc32)c2ccc(C(=O)*)cc21

Assay [1] has as its target T1, Rad51, fluorescently labelled …. As to the kind of experiment: microscale thermophoresis, labelled Rad51 about 500 nM, PBS. How it is done: (§1) Microscale thermophoresis was performed as previously described (see, for e.g. Jerabek-Willemsen, M., Wienken, C. J., Braun, D., Baaske, P. & Duhr, S. Molecular interaction studies using microscale thermophoresis. Assay Drug Dev. Technol. 9, 342-353 (2011)). The affinity of the Compound was measured using the Monolith NT.115 from Nanotemper Technologies. Rad51 was fluorescently labelled according to the manufacturer's protocol and the labelled protein used for each assay was about 500 nM. A solution of unlabelled peptide was diluted for appropriate serial concentration gradient. The samples were loaded into silica capillaries (Polymicro Technologies). Measurements were performed at room temperature in buffer containing PBS, 0.1% Tween 20, 0.5 mM ATP, 2.5 uM ssDNA, with 1 mM CaCl2 (when mentioned). Measurements were done using 12% LED power and 60% MST power. The assays were repeated three times for each affinity measurement. Data analyses were performed using Nanotemper Analysis software and OriginPro 8.0 software provided by the manufacturer.
(MST reads how a fluorescent partner responds to local heating, with and without ligand.)

Another assay deals with T2, H. sapiens Rad51. As to the kind of experiment: yeast two-hybrid, human RAD51 mutant. How it is done: (§2) The ability of peptides to bind human RAD51 with various mutations was then tested by Y2H assay. […] While mutations affecting BRCA2 binding had no effect on peptide binding, mutations that affected RAD51-AP1 binding did disrupt peptide binding. As these mutations were at residues 202, 205, and 206, they were consistent with the previous fusion data showing binding somewhere in the 190-218 region, and indicated the peptide SEQ ID NO.:5 contacts at least residues 202, 205, and 206 of RAD51.

The target of assay [2] is T1, Rad51, fluorescently labelled …. The experiment in a line: microscale thermophoresis, 1 mM Ca2+ against no Ca2+. How it is done:
as §1

For assay [3] the target is unchanged. As to the kind of experiment: microscale thermophoresis, labelled Rad51 about 500 nM, PBS + 1 mM Ca2+. The procedure: as §1
The assay “Rad51 (S208E; A209D)” deals with B1. As to the kind of experiment: yeast two-hybrid, human RAD51 mutant. The procedure: as §2
In assay [4] the target is B4. The experiment in a line: yeast two-hybrid, human RAD51 mutant. How it is done:
as §2

The assay “Rad51 (F86E; A89E)” addresses B2. The experiment in a line: yeast two-hybrid, human RAD51 mutant. The procedure: as §2
The target of the assay “Rad51 (A190L; A192L)” is B5. The experiment in a line: yeast two-hybrid, human RAD51 mutant. The procedure:
as §2

Assay [5] deals with B3. As to the kind of experiment: yeast two-hybrid, human RAD51 mutant. How it is done:
as §2

As a reminder, the Kd is the concentration at which binding is half-saturated. On to Ac-[dL][dM][dR][dS][dV][dR][dL][dR][dV]G[dL][dR][dK][dR][dR][dR][dR][dR][dR][dR]-NH2 [Compound 10, Ac-lmrsvrlrvGlrkrrrrrrr-NH2], for which the Kd in [1] was 8.55 nM.
Take B1: in the assay with H. sapiens Rad51, the binding result is listed as “binds”.
Same read-out and setting: next, B2: “no binding”; B3: “no binding”.
On the same count and under the same terms, to B4 belongs “binds”; to B5, “no binding”.
For Ac-K([C6-5FAM])RRRRRRRKRLGVRLRVSRML-NH2 (also called active peptide 5) [Compound 5, Ac-K(C6_5FAM)-RRRRRRRKRLGVRLRVSRML-NH2], the “fold increase of Kd (calcium raised from 0 to 1 mM)” value in assay [2] was 3.4 fold. Besides, the Kd turned out to be 8.37 nM in assay [1] and 28.9 nM in assay [3].
Regarding KEPTLLGFHTASGKKVKIAKESLDKVKNLFDEKEQ (Y2H fusion in yeast) [residues 1517-1551 of human BRCA2 used as Y2H bait], the binding result with Rad51 (S208E; A209D) was “no binding”; in assay [4], “binds”; with Rad51 (F86E; A89E) it was “binds”; in the assay with Rad51 (A190L; A192L), “no binding”; in [5], “no binding”.
